Target: T1, MUC1 carrying sialylated Core-1 glycans expressed by the breast cancer cell line T47D (UniProt P15941 24-1255, limits assumed, O-linked sialylated Core-1 glycans)
T1 construct: whole, on cells; also called MUC1-ST on T47D cells; T47D cells (MUC1-ST+ve)
Test: staining of FFPE T47D cells with human Siglec-9 IgG fusion, DAB

T1 sequence (P15941 24-1255 limits assumed, stated change not applied): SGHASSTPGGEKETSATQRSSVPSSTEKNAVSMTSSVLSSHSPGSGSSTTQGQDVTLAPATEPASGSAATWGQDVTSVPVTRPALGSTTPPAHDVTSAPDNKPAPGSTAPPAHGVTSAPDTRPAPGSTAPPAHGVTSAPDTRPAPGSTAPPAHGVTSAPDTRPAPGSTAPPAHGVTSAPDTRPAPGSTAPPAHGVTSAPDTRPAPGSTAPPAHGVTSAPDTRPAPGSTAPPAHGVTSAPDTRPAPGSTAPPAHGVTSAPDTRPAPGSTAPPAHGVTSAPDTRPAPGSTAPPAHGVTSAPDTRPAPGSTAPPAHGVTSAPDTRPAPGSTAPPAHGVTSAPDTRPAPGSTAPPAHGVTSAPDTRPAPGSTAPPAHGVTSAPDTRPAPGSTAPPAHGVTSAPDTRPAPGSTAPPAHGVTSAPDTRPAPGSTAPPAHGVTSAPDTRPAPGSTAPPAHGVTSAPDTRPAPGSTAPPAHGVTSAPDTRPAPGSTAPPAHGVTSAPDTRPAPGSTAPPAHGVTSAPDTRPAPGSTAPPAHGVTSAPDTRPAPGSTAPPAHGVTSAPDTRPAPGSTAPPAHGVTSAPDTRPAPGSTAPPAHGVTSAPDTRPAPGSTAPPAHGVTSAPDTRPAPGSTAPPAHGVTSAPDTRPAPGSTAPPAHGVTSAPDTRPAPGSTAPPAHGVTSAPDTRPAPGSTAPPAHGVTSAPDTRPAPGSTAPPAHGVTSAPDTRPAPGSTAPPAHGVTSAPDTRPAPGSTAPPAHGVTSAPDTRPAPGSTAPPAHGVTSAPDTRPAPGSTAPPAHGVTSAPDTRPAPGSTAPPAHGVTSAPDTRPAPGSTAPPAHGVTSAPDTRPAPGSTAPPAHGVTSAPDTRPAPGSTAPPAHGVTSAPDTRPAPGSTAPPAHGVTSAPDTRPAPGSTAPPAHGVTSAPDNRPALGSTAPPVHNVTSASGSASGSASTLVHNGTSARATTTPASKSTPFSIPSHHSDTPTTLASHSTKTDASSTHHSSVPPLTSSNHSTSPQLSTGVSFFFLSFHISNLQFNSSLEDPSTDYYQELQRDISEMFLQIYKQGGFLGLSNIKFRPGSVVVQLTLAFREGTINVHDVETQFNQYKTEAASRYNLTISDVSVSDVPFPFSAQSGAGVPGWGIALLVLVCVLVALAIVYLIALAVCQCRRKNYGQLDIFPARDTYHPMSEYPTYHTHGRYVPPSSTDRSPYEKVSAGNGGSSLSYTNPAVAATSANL

B1: Recombinant human Siglec-9 fusion protein (Fc fusion)
chain: TSKLLTMQSSVTVQEGLCVHVPCSFSYPSHGWIYPGPVVHGYWFREGANTDQDAPVATNNPARAVWEETRDRFHLLGDPHTKNCTLSIRDARRSDAGRYFFRMEKGSIKWNYKHHRLSVNVTALTHRPNILIPGTLESGCPQNLTCSVPWACEQGTPPMISWIGTSVSPLDPSTTRSSVLTLIPQPQDHGTSLTCQVTFPGASVTTNKTVHLNVSYPPQNLTMTVFQGDGTVSTVLGNGSSLSLPEGQSLRLVCAVDAVDSNPPARLSLSWRGLTLCPSQPSNPGVLELPWVHLRDAAEFTCRAQNPLGSQQVYLNVSLQSKATSGVTQG
notes: also called human Siglec-9 IgG fusion; recombinant Siglec 9; not shown: human IgG part of the fusion (captured with mouse anti human IgG)
binding result: binds

— patent US20190211099A1 (KING S COLLEGE LONDON, published 2019)
